Target: A-beta42 Monomer (human)
Assay: SPR direct binding (MASS-1), hybridoma supernatant over immobilized antigen

A-beta42 Monomer (human), sequence (peptide, as listed by the source): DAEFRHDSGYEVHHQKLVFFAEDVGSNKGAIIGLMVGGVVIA

response units (RU): 46 RU
B1: 301-12G11 (17) (antibody, V domains shown)
VH: QVQLQQPGAELVKPGASVKMSCKASGYSFTSYWINWVKQRPGQGLEWIGDVHPGRGVSTYNAKFKSKATLTLDTSSSTAYMQLSSLTSEDSAVYYCSRSHGNTYWFFDVWGAGTTVTVSS
VL: DVLMTQTPLSLPVSLGDQASISCRSSQSIVHSNGNTYLEWYLQKPGQSPKLLIYKVSNRFSGVPDRFSGSGSGTDFTLKISRVEAEDLGVYYCFQGSHVPFTFGSGTKLEIKR
